Results on seven molecules are retold here after patent publication US7842469B2, “Bioluminescence resonance energy transfer (BRET) systems and methods of use thereof” (Stanford University, priority 2005, dated 2010).

For data set [1], the target named is MDR1 P-glycoprotein (Pgp) (Homo sapiens, UniProt P08183). As to conditions: cited from earlier work.
The test system of data set [2] is CHO cells. Put plainly: Mammalian expression, transient transfection, light output in CHO cells. As to conditions: pcDNA 3.1 CMV plasmid, 24 hours post transfection, coelenterazine. It is filed as cell-based, Chinese Hamster. An excerpt: (§1) Mammalian Expression: In order to construct mammalian expression vectors, bacterial expression vectors containing the desired mutations were used as templates for PCR, with primers designed such that the N-terminal pelB sequence would be replaced by a methionine codon and a C-terminal stop codon would replace the Myc epitope and 6×His tag. The primers also contained appropriate NheI and HindIII restriction sites to allow insertion of the product into the pcDNA 3.1 plasmid (Invitrogen). The resultant plasmids were transiently transfected using SuperFect (Qiagen) into 293T or Chinese Hamster Ovarian (CHO, ATCC# CCL-61) cells growing in 24 well plates following the manufacturer's protocol. Twenty-four hours post transfection, 0.5 μg/well of coelenterazine was added, and the plates were imaged in an IVIS 50 imaging system (Xenogen, Alameda, Calif.).

Data set [3] relates to 293T cells. As to the kind of experiment: Mammalian expression, transient transfection, light output in 293T cells. It is filed as cell-based, human.
Description: as §1

Data set [4] is described as follows: Serum stability in mouse serum at 37° C. It is filed as in vitro ADME. The conditions noted are these: mouse serum, 37° C., mono-exponential fit. An outline of the steps:
(§2)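 Luciferase diluted into mouse or rat serum at 37° C; aliquots withdrawn over time for activity, half-life from mono-exponential decay fit. Emission spectra recorded at ambient temperature with a grating spectrometer and cooled CCD detector.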

Data set [5] is described as follows: Quantum yield measurements. It counts as biochemical. As to conditions: for Quantum Yield (%) bc: benzyl-coelenterazine; for Quantum Yield (%) bdc: bisdeoxycoelenterazine; for Quantum Yield (%) cp: coelenterazine-cp; for Quantum Yield (%) n: coelenterazine-n; for Quantum Yield (%) native: native coelenterazine. The procedure: For quantum yield measurements, separate 1 μl drops of protein (about 2 pm) and substrate (0.2 pm) were placed in a tube, 100 μl of 100 mM sodium phosphate buffer (pH 7) was injected by the luminometer to mix, and the total light output was integrated (generally 5-10 min). For coelenterazine-n, the protein amount was increased 10 fold and the acquisition time lengthened to insure the reaction approached completion.

Data set [6] in a line: Bioluminescence emission spectra. It counts as physicochemical. The conditions noted are these: emission spectrum with native coelenterazine. An outline of the steps: as §2
Data set [7] in a line: Luciferase activity of purified RLuc mutants (light output integrated over 10 s, luminometer). The conditions noted are these: for Activity (relative to RLuc) bc: benzyl-coelenterazine; for Activity (relative to RLuc) bc / Activity (relative to RLuc) bdc / Activity (relative to RLuc) cp / Activity (relative to RLuc) n / Activity (relative to RLuc) native: relative to native enzyme; for Activity (relative to RLuc) bdc: bisdeoxycoelenterazine; for Activity (relative to RLuc) cp: coelenterazine-cp; for Activity (relative to RLuc) n: coelenterazine-n; for Activity (relative to RLuc) native: native coelenterazine. It is filed as biochemical. Summed up: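 Purified RLuc mutant sample, diluted in EB with 1% HSA, added to room-temperature 100 mM sodium phosphate (pH 7), then 1 μl of 0.5 μg/μl coelenterazine or analog mixed in manually. Light read for 10 s starting ~4 s after luciferin addition. Luminometer calibrated to photons/s against luminol standard in DMSO.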

Data set [8] can be described thus: Serum stability in rat serum at 37° C. It counts as in vitro ADME. The conditions noted are these: mono-exponential fit. Summed up:
as §2

Read-outs that look alike come from different tables or passages of the source.

Chain of MDR1 P-glycoprotein (Pgp) (P08183 whole entry): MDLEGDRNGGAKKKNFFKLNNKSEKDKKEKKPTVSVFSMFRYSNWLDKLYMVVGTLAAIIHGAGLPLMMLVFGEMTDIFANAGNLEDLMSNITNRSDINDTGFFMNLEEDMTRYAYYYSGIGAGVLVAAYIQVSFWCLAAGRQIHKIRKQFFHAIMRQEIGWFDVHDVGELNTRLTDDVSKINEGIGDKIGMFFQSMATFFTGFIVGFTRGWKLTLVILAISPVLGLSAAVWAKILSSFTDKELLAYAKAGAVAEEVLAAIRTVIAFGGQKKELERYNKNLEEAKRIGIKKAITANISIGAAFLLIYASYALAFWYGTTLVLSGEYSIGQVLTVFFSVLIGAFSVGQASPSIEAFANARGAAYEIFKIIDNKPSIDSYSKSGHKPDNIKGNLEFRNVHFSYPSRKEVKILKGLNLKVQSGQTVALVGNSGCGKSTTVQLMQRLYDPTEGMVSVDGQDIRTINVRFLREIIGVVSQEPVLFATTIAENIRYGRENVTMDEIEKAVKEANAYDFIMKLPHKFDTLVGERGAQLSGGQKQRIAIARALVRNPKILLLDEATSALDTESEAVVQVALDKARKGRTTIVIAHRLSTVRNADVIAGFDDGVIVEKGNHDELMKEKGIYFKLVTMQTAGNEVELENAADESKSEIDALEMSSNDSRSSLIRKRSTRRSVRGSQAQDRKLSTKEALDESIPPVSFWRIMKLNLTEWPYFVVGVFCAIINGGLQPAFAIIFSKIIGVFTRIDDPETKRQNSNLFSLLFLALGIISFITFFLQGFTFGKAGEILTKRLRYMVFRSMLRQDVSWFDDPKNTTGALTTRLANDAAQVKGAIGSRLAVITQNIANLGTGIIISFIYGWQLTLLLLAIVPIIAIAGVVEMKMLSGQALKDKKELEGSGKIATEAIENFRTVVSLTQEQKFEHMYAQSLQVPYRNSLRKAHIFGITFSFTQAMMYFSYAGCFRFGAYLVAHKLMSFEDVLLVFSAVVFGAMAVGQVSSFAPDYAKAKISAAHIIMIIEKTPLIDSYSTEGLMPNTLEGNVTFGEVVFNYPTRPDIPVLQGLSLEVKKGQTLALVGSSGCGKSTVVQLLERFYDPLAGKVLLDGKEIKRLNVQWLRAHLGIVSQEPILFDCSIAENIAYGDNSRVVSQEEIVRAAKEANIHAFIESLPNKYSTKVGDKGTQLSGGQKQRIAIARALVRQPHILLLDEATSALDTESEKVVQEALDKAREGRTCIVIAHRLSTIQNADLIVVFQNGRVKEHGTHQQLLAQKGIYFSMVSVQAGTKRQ

Regarding `Oc1ccc(Cc2nc3c(Cc4ccccc4)nc(-c4ccc(O)cc4)cn3c2O)cc1` [coelenterazine, Coelenterazine], the “substrate for MDR1 P-glycoprotein (Pgp)” value in data set [1] (mammalian cells) is given as “is a substrate for MDR1 P-glycoprotein”.
For `Oc1ccc(Cc2nc3c(CC4CCCC4)nc(-c4ccc(O)cc4)cn3c2O)cc1` [coelenterazine-cp], the “substrate for MDR1 P-glycoprotein (Pgp)” value in data set [1] (mammalian cells) is listed as “not substrates for Pgp”.
In the case of Coelenterazine-n, in data set [1], the “substrate for MDR1 P-glycoprotein (Pgp)” value is recorded as “not substrates for Pgp”.

B1: C124A/M185V: double mutant (C124A/M185V) Renilla Luciferase protein (SEQ ID NO: 2) (protein)
chain: MASKVYDPEQRKRMITGPQWWARCKQMNVLDSFINYYDSEKHAENAVIFLHGNAASSYLWRHVVPHIEPVARCIIPDLIGMGKSGKSGNGSYRLLDHYKYLTAWFELLNLPKKIIFVGHDWGAALAFHYSYEHQDKIKAIVHAESVVDVIESWDEWPDIEEDIALIKSEEGEKMVLENNFFVETVLPSKIMRKLEPEEFAAYLEPFKEKGEVRRPTLSWPREIPLVKGGKPDVVQIVRNYNAYLRASDDLPKMFIESDPGFFSNAIVEGAKKFPNTEFVKVKGLHFSQEDAPDEMGKYIKSFVERVLKNEQ
modifications: Chemically synthesized Renilla Luciferase
Consider B1, for which the “Light output after transient transfection, CHO” value in data set [2] was 172.4 ± 8.4 photons × 10^6/s/cm^2/steradian. In addition, the “increase in light relative to C124A after transient transfection into mammalian cells” value in data set [3] (mammalian cells (293T or CHO)) is recorded as “approximately 3 fold”. Moreover, the “Light output after transient transfection, 293T” value in data set [3] (pcDNA 3.1 CMV plasmid, 24 hours post transfection, coelenterazine) is listed as 174.1 ± 25.7 photons × 10^6/s/cm^2/steradian. Further, the “Serum τ1/2 (h) mouse” value in data set [4] came out at 5.7 h. Moreover, in data set [5], the “Quantum Yield (%) bc” value was 6.3 ± 0.1%, the “Quantum Yield (%) bdc” value was “(174.4 ± 6.7) × 10^−3%”, the “Quantum Yield (%) cp” value amounted to 10.1 ± 0.2% and the “Quantum Yield (%) n” value was determined as 9.4 ± 0.4%. In data set [5], the “Quantum Yield (%) native” value came to 6.9 ± 0.3%. In data set [6], the “Wavelength (nm) mean” value was found to be 500 nm and the “Wavelength (nm) peak” value stood at 485 nm. Moreover, in data set [7], the “Activity (relative to RLuc) bc” value is listed as 3.0, the “Activity (relative to RLuc) bdc” value is listed as 44, the “Activity (relative to RLuc) cp” value is listed as 15 and the “Activity (relative to RLuc) n” value turned out to be 7.8. The “Activity (relative to RLuc) native” value in data set [7] amounted to 3.4. The “light output compared to M185V alone” value in data set [7] (bisdeoxycoelenterazine (Coelenterazine 400a)) is given as 2 fold. In addition, in data set [7] (in vitro), the “increase in activity compared to the C124A mutant” value is reported as “approximately 3 fold”. In data set [8], the “Serum τ1/2 (h) rat” value was found to be 3.7 h.

B2: C124A/S287L: RLuc mutant C124A/S287L (protein)
chain: MASKVYDPEQRKRMITGPQWWARCKQMNVLDSFINYYDSEKHAENAVIFLHGNAASSYLWRHVVPHIEPVARCIIPDLIGMGKSGKSGNGSYRLLDHYKYLTAWFELLNLPKKIIFVGHDWGAALAFHYSYEHQDKIKAIVHAESVVDVIESWDEWPDIEEDIALIKSEEGEKMVLENNFFVETMLPSKIMRKLEPEEFAAYLEPFKEKGEVRRPTLSWPREIPLVKGGKPDVVQIVRNYNAYLRASDDLPKMFIESDPGFFSNAIVEGAKKFPNTEFVKVKGLHFLQEDAPDEMGKYIKSFVERVLKNEQ
Turning to B2, the “Serum τ1/2 (h) mouse” value in data set [4] is 28 h. Besides, in data set [5], the “Quantum Yield (%) bc” value stood at 5.0 ± 0.1%, the “Quantum Yield (%) bdc” value is given as “(20.9 ± 0.6) × 10^−3%”, the “Quantum Yield (%) cp” value stood at 7.2 ± 0.3% and the “Quantum Yield (%) n” value is 7.7 ± 0.2%. In data set [5], the “Quantum Yield (%) native” value was determined as 6.1 ± 0.2%. Also, in data set [6], the “Wavelength (nm) mean” value was determined as 496 nm and the “Wavelength (nm) peak” value is reported as 478 nm. In addition, in data set [7], the “Activity (relative to RLuc) bc” value is given as 2.8, the “Activity (relative to RLuc) bdc” value stood at 9.5, the “Activity (relative to RLuc) cp” value is 3.4 and the “Activity (relative to RLuc) n” value is on record as 5.0. For the same molecule, the “Activity (relative to RLuc) native” value in data set [7] amounted to 3.9. In addition, in data set [8], the “Serum τ1/2 (h) rat” value was found to be 20 h.

B3: C124A/A143M: RLuc mutant C124A/A143M (protein)
chain: MASKVYDPEQRKRMITGPQWWARCKQMNVLDSFINYYDSEKHAENAVIFLHGNAASSYLWRHVVPHIEPVARCIIPDLIGMGKSGKSGNGSYRLLDHYKYLTAWFELLNLPKKIIFVGHDWGAALAFHYSYEHQDKIKAIVHMESVVDVIESWDEWPDIEEDIALIKSEEGEKMVLENNFFVETMLPSKIMRKLEPEEFAAYLEPFKEKGEVRRPTLSWPREIPLVKGGKPDVVQIVRNYNAYLRASDDLPKMFIESDPGFFSNAIVEGAKKFPNTEFVKVKGLHFSQEDAPDEMGKYIKSFVERVLKNEQ
For the molecule B3, in data set [4], the “Serum τ1/2 (h) mouse” value is recorded as 30 h. In data set [5], the “Quantum Yield (%) bc” value amounted to 3.5 ± 0.1%, the “Quantum Yield (%) bdc” value was “(6.3 ± 0.7) × 10^−3%”, the “Quantum Yield (%) cp” value turned out to be 4.8 ± 0.1% and the “Quantum Yield (%) n” value came to 5.8 ± 0.2%. Besides, the “Quantum Yield (%) native” value in data set [5] worked out at 5.2 ± 0.3%. Also, in data set [6], the “Wavelength (nm) mean” value was found to be 497 nm and the “Wavelength (nm) peak” value was 480 nm. In data set [7], the “Activity (relative to RLuc) bc” value stood at 1.3, the “Activity (relative to RLuc) bdc” value is 1.6, the “Activity (relative to RLuc) cp” value is given as 0.95 and the “Activity (relative to RLuc) n” value stood at 1.5. The “Activity (relative to RLuc) native” value in data set [7] came to 1.7. For the same molecule, the “Serum τ1/2 (h) rat” value in data set [8] worked out at 29 h.

B4: C124A/M253L: RLuc mutant C124A/M253L (protein)
chain: MASKVYDPEQRKRMITGPQWWARCKQMNVLDSFINYYDSEKHAENAVIFLHGNAASSYLWRHVVPHIEPVARCIIPDLIGMGKSGKSGNGSYRLLDHYKYLTAWFELLNLPKKIIFVGHDWGAALAFHYSYEHQDKIKAIVHAESVVDVIESWDEWPDIEEDIALIKSEEGEKMVLENNFFVETMLPSKIMRKLEPEEFAAYLEPFKEKGEVRRPTLSWPREIPLVKGGKPDVVQIVRNYNAYLRASDDLPKLFIESDPGFFSNAIVEGAKKFPNTEFVKVKGLHFSQEDAPDEMGKYIKSFVERVLKNEQ
Turning to B4, in data set [4], the “Serum τ1/2 (h) mouse” value is given as 15 h. Further, in data set [5], the “Quantum Yield (%) bc” value came to 3.5 ± 0.1%, the “Quantum Yield (%) bdc” value is reported as “(7.6 ± 0.3) × 10^−3%”, the “Quantum Yield (%) cp” value worked out at 5.1 ± 0.2% and the “Quantum Yield (%) n” value is reported as 5.8 ± 0.1%. Also, the “Quantum Yield (%) native” value in data set [5] is given as 5.5 ± 0.1%. Further, in data set [6], the “Wavelength (nm) mean” value is 488 nm and the “Wavelength (nm) peak” value is recorded as 471 nm. For the same molecule, in data set [7], the “Activity (relative to RLuc) bc” value was 1.4, the “Activity (relative to RLuc) bdc” value is given as 1.7, the “Activity (relative to RLuc) cp” value was found to be 1.6 and the “Activity (relative to RLuc) n” value was determined as 1.6. Also, the “Activity (relative to RLuc) native” value in data set [7] is reported as 1.9. Moreover, the “Serum τ1/2 (h) rat” value in data set [8] worked out at 10 h.
